Measured values: a protein production outcome set (Wang et al. 2014)

Assay: label from the status in PepcDB records
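Also: failed if final PepcDB status was selected cloned or expressed and not failed if soluble or beyond.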

Sequence | protein production
RAAAALAAGALALSLTACGGDEDNGGGDGGDEGGGAKQPASSVTLPKLDGESLEVAAVWTGTEQENFKKVLAEFEKRTGAKVTFVPAQDPIINFLGSKIAGGAPPDVAMLPQPGAIKQAVDKGWAKPLGAEATKELGENYSQGWQDIGKVGGKQYGVYYKAANKSLIWYNAQVFENAGAAEPKTWDELLNAAQMVYDSGVTPFSVGGADGWTLTDWFENVYLSQAGPEKYDQLAKHEIKWTDPSVKDALTTLAEIWGKKDFVAGGASGALQTEFPASVTQTFTGGDQPKAGMVYEGDFVQVNIGETKAKVGTDAKVFPFPAVGDTAPVVSGGDAAVVFKDSKAAQALATWLASPDAAGIQAKLGGFLSPNKSIDSSVYPNEVQKKIAEALVAAGDDFRFDMSDQAPQAFGGTPGKGEWKTLQDFLKNPKDVAGAQAKLEADAAAAYG | failed
NSDVPENTHLVSKEVQAAFNAKYPQAKDVEWELKGDYAVADFYWDGGEHSAWFNPLSAAWYMTETDVRYENLPEPVLAAHKAGKYADWRVDDVDKLTREGMETLYVIEVEKGESELDLFYSSTGILVKTVVDTGHEEDYDDYLPQPDANGIIAIVKQKYPNATIVEIEREKGLQEVTILDENKEKEVYFNERNEWMGTSWDVQVANLPEAVKKSVMEKYSDYVIDDADYVVTPDNEWYILDLENKQIDKELKVKVDKDGVWL | not failed
MDTLDGLKTVVAVVETNSFTAASDRLGISKALVSKYVGEVENQLGIRLFNRTTRQLALTDSGRRYYEEAIILLEQFSAMVDNVTGEQTAPRGLLRISAPVTFGEMRLAPLLPKFIALYPDLTVELVLTNGAIDMLEEGIDVRLRIGGVDDSNMIARHLTNFPLVLSASPNYAQTQGLPTTPEQLGEHHCIIDSNFRIGKQWPFISPKGRAETINVQSGLAVNSPQAVREIAIADGGIAMTPNFIVEDALADGRLLRVMPEYTTLEFGLFAIYPHRKYVARKVRCFIDFVLEQFSKK | failed
MSALSSEGFFLEKCTHFFSDKKVVFFIATLCCLLWGSAYPAIKNGYELFHIADDDIPGKLVFAGYRFAFAGLLLALAVLSGRSIGRFQRGQLAQLTILGTFQTSLQYVFFYIGLAYTTGVKGSIMNATSTFFSVLLAHYLYQNDKLNINKIIGCILGFAGVMAVNINSNGMNIGFTLLGDGFVVIAAFILSASTIYGKRISQTMDPTVMTGYQLAIGGIILTISGYCTGGSLIIPDWRAVLMLGYLILLSSAAFSLWSQLLKYNRVGMVAPFNFLIPVSGTLLSALFLNESILEWKYFFALILVCSGIWLVNRVVKTRSGK | failed
MTATIPPLTPTVTPSNPDRPIADLKLQDIIKTLPKECFEKKASKAWASVLITLGAIAVGYLGIIYLPWYCLPITWIWTGTALTGAFVVGHDCGHRSFAKKRWVNDLVGHIAFAPLIYPFHSWRLLHDHHHLHTNKIEVDNAWDPWSVEAFQASPAIVRLFYRAIRGPFWWTGSIFHWSLMHFKLSNFAQRDRNKVKLSIAVVFLFAAIAFPALIITTGVWGFVKFWLMPWLVYHFWMSTFTIVHHTIPEIRFRPAADWSAAEAQLNGTVHCDYPRWVEVLCHDINVHIPHHLSVAIPSYNLRLAHGSLKENWGPFLYERTFNWQLMQQISGQCHLYDPEHGYRTFGSLKKV | failed
FLSTRDNVDELRKIENKSSFVSADNMPEYVKGAFISMEDERFYNHHGFDLKGTTRALFSTISDRDVQGGSTITQQVVKNYFYDNDRSFTRKVKELFVAHRVEKQYNKNEILSFYLNNIYFGDNQYTLEGAANHYFGTTVNKNSTTMSHITVLQSAILASKVNAPSVYNINN | failed
MKIFAVVVTYNRLALLKKVIDLLKRQTRQLDSIVIVNNGSTDGTKEWLEQEKNITLINQSNSGGAGGFETGVKYAYENEADWIWMMDDDVFPNIDCLEKLLGWTSISQCIQPRRYYSDDVEVNFEQWLDPITYSKFGYWQEKSFNNGKKFCAINVGCFEGMFVSKSIVNKIGFPDKRFFIAEDDTIYGFAASFYTNVILVSDAIMVRARRSSDRSVSPMYTYYACRNFHLVYESLNLLLDKKNRFLYIKYIYQFVHQIYLSIFLYDNKMKHLISVFRGFYDCFRKKNGATYLEHHHHHH | failed
MNEILHWKRNFFLLALGRFVSILGSSVQAVAIPLFVLDLTHSGSAVALMTVAYMVPRILFTPIAGIVGDRGDRKFLMVSMDFLRGFLICFLALLAFRNSITLPVLYVSQIAMAIMDNLFDIPTGAMFPDIVPQDFLMRANSIMGMVRIFPQILGPALGGVIYGFYGIAIVFLVNGVSFVLSAISEIFIVYSRKVEKKPAKFSQILEDLKEGFLFIWNHELIRTILIFALFLNLLISPLFMVVYPYTIREVMKFSAQEFGFLETSFTLGALLGNFLIASYLSKKNMWKAMKISIFLFELPIVFLGFLVMPDFSLNRLVLFSLFFITFLIMGFLNPIINVPLDTAFQKMTPSHIRARAFSFLILVANGVTPLGSVLYGYLVDRVPVHFLYYVVGALSFLVAVLLLVALRGKELPT | failed
MGHHHHHHSHMAGTVVLDDVELREAQRDYLDFLDDEEDQGIYQSKVRELISDNQYRLIVNVNDLRRKNEKRANRLLNNAFEELVAFQRALKDFVASIDATYAKQYEEFYVGLEGSFGSKHVSPRTLTSCFLSCVVCVEGIVTKCSLVRPKVVRSVHYCPATKKTIERRYSDLTTLVAFPSSSVYPTKDEENNPLETEYGLSVYKDHQTITIQEMPEKAPAGQLPRSVDVILDDDLVDKAKPGDRVQVVGTYRCLPGKKGGYTSGTFRTVLIACNVKQMS | not failed
MLFPLILQRPMLSTPTLPRKTFAFLLGGVLLVGLVACGSSTPMAPASSASSALESAAADSLLRQVKTQIREATDEGSLDSLKQARAWAKQATGGDRAALAHYYAALADYRMSNRLPEEDEARRGRVIEDAIGHLKRATEINGTMADAWALLSGYYGQMMGMNPMQGMSLGPKANEAMKRAKEHGPNNPRVWIIDGTSDFYTPGMFGGDKEKALTKFEKAARLAEQGSPDDPLMPGWGHAEAHAWVGVAHMEAERYDPARTAFEAALDLNPDYGWVRSVLLPRLEQQAG | failed
MSRGGFCQTYFAVDECQSPPVPYVVQKLHDNEQLLDSFQQKAQYIEQLSQNSQLPTLLAYFRDQDNYYFVQEFIAGASLAQVVQEEGAFHETQVWQLLTNLLPILKLMSDRQLIHGDIKPENIIRQLTPDSTNLVLVDFGHVQIVSRTDQITDVQGVGSPEYAAPEQITGQAVFASDLYSLGVTCIHLLTLVSPFDLFDIANDCWVWQQYLTTKISDRLTKILNKLIQKSVHQRFQSADEVMQVMGIEGKILHYPPPPSPWQCLHTLTGYSTNSLAISPDGNKLASGGDDKIIRLWELNTQKLLACFSGHSQAVTSVSFSPQGEILATASDDKTIKLWHLPTSSEVFTLNGHTNPVKSVSFSPNGQILASGSWDKQVKLWDVTTGKEIYALKAHQLQVSAVAFSPQGEILASASFDRTIRLWQITQNHPRYTLIKTLSGHTRAVLAIAFSPDGKILATGSDDNTIKLWDINTGQLIATLLGHSWSVVAVTFTADNKTLISASWDKTIKLWKVSTTEEIVTLASHLDSVCAVAVNPVTQVIASSSRDKTIKLWQLVIQQN | failed
MQSSLSFSCGVKSTMAKSPVEVNLIPIEATPETFAEYGQVIEASRDGAGYGPNDAQLDLSKGIPRLYILRLKETPLGFFKITHHAKVTQCLGSIGGDIWYMGVAKPSLIEDDDDGRRVDTVKAKSGHLYIPPEVEEIRVFRFSGPKFVKLHRGTWHAGPLFSGSSIMDFYNLELSNTNVVDHTSHDFTKNNGVSFRFDT | failed
AAIILHEIYGINAHIQRAGHEWMTRGFDIYIPALFPHHTPFRYEQQEEAYRHFSANVGFDPAVVTTLLHELRTQYETLIVVGYSVGATLAWLSAASGLCDGVICYYGSRIRQYLHLAPLCPTLVIIARYEPAFDPLAMRQTLEKRPRVQCKMYDARHGFCDADSATFDAALSHQVMDDVSAFIRDI | failed
MNALRKVGAVAWAAVGSLLLSGCEFNGWYDVQLPGGAAADGHAYHVTVEFRDVLDLVPQSAVKVNNVTVGAVEEVQLDGWHARVRLRVADSVKLPANAVAELRQTSMLGEKYVALSTPPGTAPVGRLGDGDRIPLSRSGRNPDIEEVLSALSALLNGGGVAQLKTITVELNKALDGREDRVRSLLKELNTFIGGLDGRRKDIIHALKAVDRLAGRLGKEKKTIAQAVDTMPPALKVLADQRRDLTRMLTALSKLGTTGTKVVNASHDDTVANLKQLRPILQQLNKAGADLPNSLELLTTYPFPRNAVDAVRGDYVNLDITADLDLSALYRNLAGGSDKSGGGNGESTQPETPDIPDLPDLPTVPTPTALPSAPSLPSSPSMPSAPSGGGGPLCPPVCTSSYTTRGEPPEGIDLALAELMLKGVQP | failed
GTVSWNLREMLAHAEETRKLMPICMDVRAIMATIQRKYKGIKIQEGIVDYGVRFFFYTSKEPVASIITKLNSLNEPLVTMPIGYVTHGFNLEEAARCMRSLKAPAVVSVSSPDAVTTYNGYLTSSSKTSEEHFVETVSLAGSYRDWSYSGQRTELGVEFLKRGDKIVYHTLESPVEFHLDGEVLSLDKLKSLLS | not failed
MAPIFLEYKVVHDNITYYIIYVFIYNLSLKLVTMYTINPSSHTILNYNVSLEPEQIFSNITGVSTYYSLDGKKILAYEDNNGSIIVAYNGLILKKASNNSVRYLIAANYPGIDNSKFPSLYKLAEISIFDSNIRVLVLGVLLTILSSFILKVMVGRYDKVR | failed
MFAEYLDGRMLMQINAGAFLIALLCLRGDRQRTLDRWLFGAAAGVLLLVYYVWRFTDTLPEWRMDFPSLWAHAFFGFESLTIAYTLISIGIMTRTSDHSAEADAGETALRRGREAPPVDIFIATYNEGLDVLEKTIVAALDIDYPNFRVWVLDDTRRDWLREFCDQVGARYVTRPDNAHAKAGNLNNGLRHSAELDGGAPFIMVLDADFAPNRNILLRIVGLFDDPQVGVVQTPQFYYNADPIQYNLRSTECWVDEQRAFFDVMQPSKDAWGTAFCIGTSFVVRREALDRIGGFPIGTVTEDIHLTYKLMPHGYITRWLNERLSVGLSAEGLPEYISQRSRWGLGTIQVALTADGPLRGPGYTLRERLHYVHGLLHWLSRPFTLMLLAGPLLYWYFNVPTLYGEPLQFLAFGVPALLLYWAYSIWITGARAMPIFTEVTQIVAAMAVSATLVSAIFKPFGRPFKVTNKGLDRSKLVVHGKFAAFYGALFVLAAMGLGRAVAADGTASGVVFNIGWTVISMVLYLASLLVCFELPRPRKEERFPHRERARLCIYGSDGLPREFDGVTQDMSCNGIGLISDAAGRVEAGATGAVWLSELGWVTCRVARTQGHLLGIELFPDMAGRHRLIRMLFGEPAHNIAHRGRPRVAIVQLLRRAFTG | failed
KKPLSVFKGPLLHISPAEELYFGSIESGEKKTLIVLTNVTKNIVAFKVRTTAPEKYRVKPSNSSCDPGASIDIIVSPHGGLTVSAQDRFLIMAAEMEQSSGTGPAELSQFWKEVPRNKVMEHRLRCHTVESSKPNSLML | not failed
MRKTWPLLTLLLCTCASAQLRADIAHNTPPGQATMQVYDGEKVLFQATTPGLNAVTASKFSPDGRWLLNIADGSGYVQLWDTAKGERVKTFLSVYFRIFGADFTPDSERLLLDFSGSKERADPRRPAYFPSPSLWNLATLERISFVYNDKRESFYNGKVTFSQDGERMAFVRPNAYSSGPASVWNAKTGAYIATISRLPYPKGAAQTGGAGAMDARLSPDGQRVLVRYVDNRLAEYDASTGTLLKVRGKFSAADAGAELERFAREGR | failed
SFYLSELEHSLRVPPHLLNLPLEDAIKSVLQNVFLDKVLADLGLCVSIYDIKSVEGGFVLPGDGAATYKVGLRIVVFRPFVGEVIAAKFKESDANGLRLTLGFFDDIYVPAPLMPKPNRCEPDPYNRKQMIWVWEYGEPKEDYIVDDACQIKFRVESISYPSVPTERAEDAKPFAPMVVTGNMDDDGLGPVSWWDSYEQVDQEE | failed
MTPNYLDIAFLAVLGLFTLRGLFRGLVEEVAGLVGVIGGFWLANRHHADAAAYVGRVVEDPAWVGVLSYVVVFLGVLLVVSIVARIIRKLLVLSFAGWLDHLAGGAVGVAKGVIICSILLAVLMHFLPDASFVRDSRVIPHLAKVTSFIKGYLPQQIVN | failed
